Experimental findings from patent publication US20260055186A1 are described below.

The experiment addresses human CD8 on human T cells (human) (UniProt P01732). As to the kind of experiment: cell-based or functional assay.

Sequence of human CD8 on human T cells (human) (P01732 22-235): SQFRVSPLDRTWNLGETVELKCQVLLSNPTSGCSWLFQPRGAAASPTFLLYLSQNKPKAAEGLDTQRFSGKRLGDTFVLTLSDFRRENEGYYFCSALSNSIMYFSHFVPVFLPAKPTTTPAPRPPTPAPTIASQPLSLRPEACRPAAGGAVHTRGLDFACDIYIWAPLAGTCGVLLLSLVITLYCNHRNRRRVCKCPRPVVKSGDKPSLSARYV

For 51.1 (antibody), the tumor cell survival, SK-MEL-5 with MART-1 T cells worked out at 2 fold.

The substance SK1 (antibody) had a tumor cell survival, SK-MEL-5 with MART-1 T cells of 2 fold.
